The test deals with T1, ITPR1 (inositol 1,4,5-trisphosphate receptor type 1) (UniProt Q14643 1-2758, limits assumed).
T1 construct: Endogenous protein of the transfected cells, tested by co-immunoprecipitation and western blot
As to the kind of experiment: co-immunoprecipitation with antibodies to the tag and western blot, HEK293 cells before and after forskolin. The source says:
Overexpression of V5-Car10 and V5-CA10 inhibits ATP-induced free calcium release in vitro: ITPR1 contains functionally distinct domains, including the ‘modulatory’ domain responding to intracellular modulators such as calcium, calmodulin, ATP, and carbonic anhydrase-8 (Car8). ATP increases ITPR1-dependent calcium release by increasing the open probability of the channel in the presence of activating concentrations of IP3 and calcium. It is believed that Car8-mediated inhibition of ITPR1 activation and ATP-mediated calcium release requires binding to this modulatory domain. […] Co-immunoprecipitation of each protein with antibodies to V5 tag with ITPR1 and pITPR1 before and after forskolin stimulation of HEK293 cells was conducted.
Background: A western blot detects proteins with antibodies after separation by electrophoresis.

T1 sequence (Q14643 whole entry): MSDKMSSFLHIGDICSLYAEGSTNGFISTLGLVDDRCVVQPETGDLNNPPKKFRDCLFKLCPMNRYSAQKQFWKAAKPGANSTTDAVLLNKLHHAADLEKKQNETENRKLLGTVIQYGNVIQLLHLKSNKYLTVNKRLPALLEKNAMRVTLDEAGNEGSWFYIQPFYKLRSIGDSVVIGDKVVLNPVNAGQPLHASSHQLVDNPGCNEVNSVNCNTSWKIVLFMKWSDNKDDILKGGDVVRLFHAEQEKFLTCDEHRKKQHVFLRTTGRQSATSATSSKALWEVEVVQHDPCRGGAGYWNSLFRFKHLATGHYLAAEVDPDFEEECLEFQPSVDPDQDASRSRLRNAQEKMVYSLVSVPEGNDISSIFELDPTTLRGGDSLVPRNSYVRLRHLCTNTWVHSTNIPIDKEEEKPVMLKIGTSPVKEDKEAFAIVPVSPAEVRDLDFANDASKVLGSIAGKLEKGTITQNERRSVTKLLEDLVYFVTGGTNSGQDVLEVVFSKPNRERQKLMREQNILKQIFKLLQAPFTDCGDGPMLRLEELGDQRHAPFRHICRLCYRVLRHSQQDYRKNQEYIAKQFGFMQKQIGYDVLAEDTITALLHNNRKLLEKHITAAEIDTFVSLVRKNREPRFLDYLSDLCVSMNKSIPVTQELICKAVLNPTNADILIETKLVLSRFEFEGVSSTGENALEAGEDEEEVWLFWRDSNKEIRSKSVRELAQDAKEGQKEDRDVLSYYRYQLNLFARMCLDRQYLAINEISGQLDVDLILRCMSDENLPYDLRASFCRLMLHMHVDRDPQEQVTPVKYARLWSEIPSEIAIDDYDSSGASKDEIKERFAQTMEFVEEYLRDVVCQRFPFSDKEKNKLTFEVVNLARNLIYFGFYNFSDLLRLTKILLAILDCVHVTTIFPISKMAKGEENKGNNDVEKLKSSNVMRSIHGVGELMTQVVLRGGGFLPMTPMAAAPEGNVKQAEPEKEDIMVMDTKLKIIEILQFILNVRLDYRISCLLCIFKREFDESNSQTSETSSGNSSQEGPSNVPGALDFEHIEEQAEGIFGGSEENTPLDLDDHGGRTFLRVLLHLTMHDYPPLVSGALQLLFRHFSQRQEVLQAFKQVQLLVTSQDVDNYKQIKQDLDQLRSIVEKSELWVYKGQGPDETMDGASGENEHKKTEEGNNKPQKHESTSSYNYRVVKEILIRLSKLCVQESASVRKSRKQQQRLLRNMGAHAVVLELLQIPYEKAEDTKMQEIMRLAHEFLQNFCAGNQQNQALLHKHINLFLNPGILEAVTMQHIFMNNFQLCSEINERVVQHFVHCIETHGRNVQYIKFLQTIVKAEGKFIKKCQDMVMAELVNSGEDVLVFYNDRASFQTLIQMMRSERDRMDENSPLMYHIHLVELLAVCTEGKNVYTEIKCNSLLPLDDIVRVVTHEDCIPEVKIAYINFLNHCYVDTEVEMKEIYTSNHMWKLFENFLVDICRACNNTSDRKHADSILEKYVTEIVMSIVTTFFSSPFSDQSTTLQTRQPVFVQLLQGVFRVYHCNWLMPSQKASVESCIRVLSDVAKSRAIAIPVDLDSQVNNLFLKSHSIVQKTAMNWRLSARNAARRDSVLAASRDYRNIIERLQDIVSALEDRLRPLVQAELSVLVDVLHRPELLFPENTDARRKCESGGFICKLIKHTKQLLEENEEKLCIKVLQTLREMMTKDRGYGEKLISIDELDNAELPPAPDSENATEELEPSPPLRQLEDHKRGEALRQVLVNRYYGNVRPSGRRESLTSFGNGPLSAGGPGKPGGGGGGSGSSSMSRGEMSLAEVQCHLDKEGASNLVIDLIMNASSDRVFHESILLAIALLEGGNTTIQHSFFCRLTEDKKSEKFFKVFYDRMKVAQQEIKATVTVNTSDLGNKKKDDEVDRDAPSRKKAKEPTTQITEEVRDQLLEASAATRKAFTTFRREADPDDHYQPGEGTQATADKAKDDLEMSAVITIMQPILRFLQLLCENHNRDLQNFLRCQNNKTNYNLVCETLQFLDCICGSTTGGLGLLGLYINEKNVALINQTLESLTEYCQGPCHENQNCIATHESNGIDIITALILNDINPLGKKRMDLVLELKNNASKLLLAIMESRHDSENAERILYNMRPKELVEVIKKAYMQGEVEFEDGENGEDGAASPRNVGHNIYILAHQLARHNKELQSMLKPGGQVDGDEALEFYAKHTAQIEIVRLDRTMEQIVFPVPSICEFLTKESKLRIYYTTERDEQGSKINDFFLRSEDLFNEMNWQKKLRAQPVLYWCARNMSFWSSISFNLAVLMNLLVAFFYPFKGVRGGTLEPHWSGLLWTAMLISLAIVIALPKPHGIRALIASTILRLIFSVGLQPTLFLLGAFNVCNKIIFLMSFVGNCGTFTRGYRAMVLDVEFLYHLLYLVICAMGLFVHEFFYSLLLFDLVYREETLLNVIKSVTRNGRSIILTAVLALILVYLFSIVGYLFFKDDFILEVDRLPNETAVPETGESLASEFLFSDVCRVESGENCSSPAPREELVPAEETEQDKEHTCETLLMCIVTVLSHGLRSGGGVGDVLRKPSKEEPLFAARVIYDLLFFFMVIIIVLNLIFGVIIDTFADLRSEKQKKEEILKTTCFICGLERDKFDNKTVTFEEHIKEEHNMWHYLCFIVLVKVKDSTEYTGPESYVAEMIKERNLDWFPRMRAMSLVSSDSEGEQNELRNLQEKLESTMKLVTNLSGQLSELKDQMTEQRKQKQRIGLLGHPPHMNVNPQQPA

B1: CA8-204 (carbonic anhydrase 8 fragment, alternative transcript product) (other, not shown: small tags and cut ends)
chain: MADLSFIEDTVAFPEKEEDEEEEEEGVEWGYEEGVEWGLVFPDANGEYQSPINLNSREARYDPSLLDVRLSPNYVVCRDCEVTNDGHTIQVILKSKSVLSGGPLPQGHEFELYEVRFHWGRENQRGSEHTVNFKAFPMEVRITNHLVKILFSE
notes: Expressed in HEK293 cells; also called CA8 fragment
Take B1: the binding result is on record as “no binding”.
